Kd data for 1 substance are collected here from patent publication US20220251222A1, “IL-6Ralpha/IL-8R BISPECIFIC BINDING AGENTS FOR INHIBITING CANCER CELL MIGRATION” (The Johns Hopkins University, priority 2019, published 2022).

The assay deals with human IL-6 (residues 3-185) displayed on the surface of yeast (human) (UniProt P05231). Put plainly: flow cytometry titration of IL-6Rα ECD on IL-6-displaying yeast.

In the case of “human IL-6Rα extracellular domain (ECD), residues 89-303 of the mature protein, with C-terminal biotin acceptor peptide and hexahistidine, biotinylated (from UniProt P08887 108-322) (receptor)”, the Kd is 88 nM.
